These are literature values, as cited in publication PMC4482139.

A word on the Kd: it is the constant that tells how readily two partners part at equilibrium.

One data set concerns the target nmMLCK2 (Homo sapiens) (UniProt Q15746).
A further data set addresses nmMLCK1 (Homo sapiens) (UniProt Q15746).

On to Cortactin (from UniProt Q14247), for which the dissociation constant Kd is 250 nM with nmMLCK2 (Homo sapiens) and 1000 nM in the data set with nmMLCK1 (Homo sapiens).
